Reference: patent publication US20170173107A1
Positions of bridges follow the written chain, without caps; N, C: chain ends. Non-standard residues stand in square brackets, D forms with d. ABM2 = diphenyl-cyclohexanol phosphate ester hexanoic acid tag; Trp(1-Me) = Cn1cc(C[C@H](N)C(=O)O)c2ccccc21; NMeI = CC[C@H](C)[C@H](NC)C(=O)O; Sar = CNCC(=O)O

Columns and labels:
[1] = target: plasma proteins of C3-depleted serum; test: rapid equilibrium dialysis, 5 µM peptide, C3-depleted serum, 37 °C 24 h, UPLC-HDMS
[2] = target: plasma proteins of C3-depleted serum; test: rapid equilibrium dialysis, 10 µM peptide, C3-depleted serum, 37 °C 24 h, UPLC-HDMS
[3] = target: plasma proteins of C3-positive serum (C3-depleted serum with 5 µM purified C3 added); test: rapid equilibrium dialysis, 5 µM peptide, C3-positive serum (5 µM C3), 37 °C 24 h, UPLC-HDMS
[4] = target: plasma proteins of C3-positive serum (C3-depleted serum with 5 µM purified C3 added); test: rapid equilibrium dialysis, 10 µM peptide, C3-positive serum (5 µM C3), 37 °C 24 h, UPLC-HDMS

% bound [1] [%] | % bound [2] [%] | % bound [3] [%] | % bound [4] [%] | Binder
> 99 | > 99 | > 99 | > 99 | ABM2-ICVWQDW[Sar]AHRC[NMeI]-NH2 (disulfide 2-12; not fully specified (residue 4); printed as ABM2-Ile-[Cys-Val-Trp(Me)-Gln-Asp-Trp-Sar-Ala-His-Arg-Cys]-mIle-NH2) [ABM2-Cp20 (ABM2-Ile-[Cys-Val-Trp(Me)-Gln-Asp-Trp-Sar-Ala-His-Arg-Cys]-mIle-NH2)]
7 | 3 | > 99 | 84 | Ac-ICV[Trp(1-Me)]QDW[Sar]AHRC[NMeI]-NH2 (disulfide 2-12; SMILES CC[C@H](C)[C@H](NC(C)=O)C(=O)N[C@H]1CSSC[C@@H](C(=O)N(C)[C@H](C(N)=O)[C@@H](C)CC)NC(=O)[C@H](CCCNC(=N)N)NC(=O)[C@H](Cc2c[nH]cn2)NC(=O)[C@H](C)NC(=O)CN(C)C(=O)[C@H](Cc2c[nH]c3ccccc23)NC(=O)[C@H](CC(=O)O)NC(=O)[C@H](CCC(N)=O)NC(=O)[C@H](Cc2cn(C)c3ccccc23)NC(=O)[C@H](C(C)C)NC1=O) [Cp20 (Ac-Ile-[Cys-Val-Trp(Me)-Gln-Asp-Trp-Sar-Ala-His-Arg-Cys]-mIle-NH2)]
